Legend:
[1] = biological target: T1, human C1q (from normal human serum) (human, UniProt P02745 23-245; P02746 28-253; P02747 29-245); experiment: flow cytometry: human T cells opsonised with the antibody, 20% normal human serum as source of C1q, FITC-labelled rabbit anti-human C1q
T1 construct: 20% normal human serum was the source of C1q

[2] = biological target: T2, human CD27 expressed on cells (T cells, transfected HEK293F cells, Daudi cells, NFκB-luc2/CD27 Jurkat … (human, UniProt P26842 20-240)); experiment: flow cytometry on T cells in human PBMC (endogenous CD27), PE-labelled goat anti-human IgG, median MFI PE
T2 construct: also called TNFRSF7
T2 sequence: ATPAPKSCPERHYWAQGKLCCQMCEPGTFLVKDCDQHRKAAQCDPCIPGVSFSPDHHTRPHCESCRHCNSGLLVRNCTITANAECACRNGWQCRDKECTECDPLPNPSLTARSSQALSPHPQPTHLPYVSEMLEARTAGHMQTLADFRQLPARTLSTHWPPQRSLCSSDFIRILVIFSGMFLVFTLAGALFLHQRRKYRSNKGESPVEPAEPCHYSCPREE
Method: (§1) Non-binding control antibody IgG1-b12-FEAR was used as negative control antibody. *N.B. IgG1-CD27-A, -B, -C, -D and -E carried mutations F405L-L234F-L235E-D265A in the IgG Fc domain, which are functionally irrelevant in the context of this experiment.
(§2) Cells were seeded in 96-wells plates (100,000 cells per well; Greiner Bio-one, Cat #650180) for sequential incubations, with washing steps in between with FACS buffer, consisting of PBS (Lonza, Cat #BE17-517Q)+1% BSA (Roche, Cat #10735086001)+0.02% Sodium Azide (Bio-World, Cat #41920044-3). The following incubations were applied: antibody concentration series (0.0001-10 μg/mL final concentration) for 30 min at 4° C.; live/dead marker FVS510 (BD, Cat #564406, diluted 1:1,000 in PBS) for 20 min at RT; PE-labeled polyclonal goat anti-human IgG (Jackson Immuno Research, Cat #109-116-098, diluted 1:500) for 30 min at 4° C.; and anti-CD3 antibody for T-cell identification (anti-human CD3: BD, Cat #555335, diluted 1:10; anti-cyno CD3: Miltenyi, Cat #130-091-998, diluted 1:10) for 30 min at 4° C. All samples were analyzed on a FACSCelesta flow cytometer (BD) and FlowJo software. Data were processed and visualized using GraphPad Prism.

[3] = biological target: T3, cynomolgus monkey CD27 expressed on cells (cynomolgus monkey T cells, transfected HEK293F cells) (cynomolgus monkey, UniProt P26842 20-260 (human entry)); experiment: flow cytometry on T cells in cynomolgus monkey PBMC (endogenous CD27), PE-labelled goat anti-human IgG, median MFI PE
T3 construct: also called cyno CD27
T3 chain: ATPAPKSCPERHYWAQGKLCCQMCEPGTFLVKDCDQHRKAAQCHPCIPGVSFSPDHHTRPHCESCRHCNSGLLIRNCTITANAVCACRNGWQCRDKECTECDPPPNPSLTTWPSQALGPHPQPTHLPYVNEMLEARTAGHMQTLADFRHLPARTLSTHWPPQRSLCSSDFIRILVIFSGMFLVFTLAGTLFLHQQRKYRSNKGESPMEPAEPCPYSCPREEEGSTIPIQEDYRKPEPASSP
Method: as §1, §2

[4] = biological target: T2, human CD27 expressed on cells (T cells, …); experiment: flow cytometry on HEK293F cells transiently transfected with human CD27, PE-labelled goat anti-human IgG, median MFI PE
[5] = biological target: T4, human CD27-A59T variant expressed on transiently transfected HEK293F cells (human, UniProt P26842 20-260); experiment: flow cytometry on HEK293F cells transiently transfected with human CD27-A59T, PE-labelled goat anti-human IgG, median MFI PE
T4 sequence: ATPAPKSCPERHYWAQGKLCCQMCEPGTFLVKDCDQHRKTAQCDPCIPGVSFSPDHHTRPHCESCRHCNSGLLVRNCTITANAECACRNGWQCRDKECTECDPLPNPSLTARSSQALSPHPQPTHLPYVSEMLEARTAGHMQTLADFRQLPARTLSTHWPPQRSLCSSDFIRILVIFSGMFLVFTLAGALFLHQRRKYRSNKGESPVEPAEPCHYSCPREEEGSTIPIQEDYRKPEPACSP
Method: Approximately 19% of the human population expresses a natural CD27 variant harboring an A59T mutation in the extracellular domain (SEQ ID NO. 2). […] Non-binding antibody IgG1-b12-FEAL was used as a negative control antibody. […] After incubation, antibodies were PE-labeled with polyclonal goat anti-human IgG. Binding was analyzed on a FACSCelesta flow cytometer (BD) and FlowJo software. Data were processed and visualized using GraphPad Prism v.8. *N.B. IgG1-CD27-A, -B and -C carried mutations F405L-L234F-L235E-D265A in the IgG Fc domain, which are functionally irrelevant in the context of this experiment.

[6] = biological target: T3, cynomolgus monkey CD27 expressed on …; experiment: flow cytometry on HEK293F cells transiently transfected with cynomolgus monkey CD27, PE-labelled goat anti-human IgG, median MFI PE
Method: as §1, §2

[7] = biological target: T5, recombinant His-tagged human FcγRIa (Sino Biological, Cat #10256-H08S-B) (human, UniProt P12314 16-288); experiment: SPR (Biacore): His-tagged FcγRIa captured on an anti-His chip, antibody injected; resonance units against antibody concentration
T5 construct: Bought protein; not shown: His tag
Method: Binding of IgG1-CD27-A-P329R-E345R to human FcγR variants was analyzed using a Biacore surface plasmon resonance (SPR) system and compared to an anti-HIV gp120 antibody IgG1-b12 (ctrl). Biacore Series S Sensor Chips CM5 (Cytiva, Cat #29104988) were covalently coated with anti-His antibody using amine-coupling and His capture kits (Cytiva, Cat #BR100050 and Cat #29234602) according to the manufacturer's instructions. […] After three cycles of buffer, antibody samples were injected for 36 cycles to generate binding curves using antibody ranges of 0-3,000 nM for FcγRI and 0-10,000 nM for the other FcγRs. Each sample that was analyzed on an FcR-coated surface (Active Surface) was also analyzed on a parallel flow-cell without FcR (Reference Surface), which was used for background correction. Dissociation from the anti-His-coated surface was performed by regeneration of the surface using 10 mM Glycine-HCl pH 1.5 (Cytiva, Cat #BR100354). Sensograms were generated using Biacore Insight Evaluation software (Cytiva) and a four-parameter logistic (4PL) fit was applied to calculate relative binding of IgG1-CD27-A-P329R-E345R against the reference sample (ctrl).

[8] = biological target: T6, human FcγRIa on monocyte-derived macrophages (M0, M1, hMDM) (human, UniProt P12314 16-374); experiment: flow cytometry on M0 monocyte-derived macrophages, PE-labelled goat anti-human IgG
T6 construct: whole, on cells; The macrophages also express FcγRII and FcγRIIIa

[9] = biological target: T2, human CD27 expressed on cells (T cells, …); experiment: flow cytometry on CD4+ T cells in human PBMC, FITC-conjugated goat anti-human IgG F(ab')2, median FITC
Method: Binding of IgG1-CD27-A-P329R-E345R to CD27 on human healthy donor T cells was characterized in more detail using flow cytometry. Anti-HIV gp120 antibody variant IgG1-b12-P329R-E345R was used as non-binding control antibody (ctrl). Human PBMCs were isolated from buffy coats obtained from human healthy donors. PBMCs (1×10⁵ cells/well) in FACS buffer were added to polystyrene 96-well round-bottom plates (Greiner bio-one, Cat #650101) and pelleted by centrifugation at 300×g for 3 min at 4° C. The cells were resuspended in 50 μL/well serial antibody dilutions in FACS buffer (range 0.0015 to 10 μg/mL in 3-fold dilution steps) and incubated for 30 min at 4° C. Cells were pelleted, washed twice with FACS buffer and incubated in 50 μL/well with FITC-conjugated secondary antibody (FITC AffiniPure F(ab′)₂ fragment goat anti-human IgG, F(ab′)₂ fragment specific, Jackson ImmunoResearch, Cat #109-096-097, diluted 1:100) for 30 min at 4° C. in the dark. […] The samples were measured by flow cytometry on an LSRFortessa (BD) flow cytometer and analyzed using FlowJo software. Binding curves were analyzed using non-linear regression (sigmoidal dose-response with variable slope) using GraphPad Prism 8 software.

T6 sequence (P12314 16-374): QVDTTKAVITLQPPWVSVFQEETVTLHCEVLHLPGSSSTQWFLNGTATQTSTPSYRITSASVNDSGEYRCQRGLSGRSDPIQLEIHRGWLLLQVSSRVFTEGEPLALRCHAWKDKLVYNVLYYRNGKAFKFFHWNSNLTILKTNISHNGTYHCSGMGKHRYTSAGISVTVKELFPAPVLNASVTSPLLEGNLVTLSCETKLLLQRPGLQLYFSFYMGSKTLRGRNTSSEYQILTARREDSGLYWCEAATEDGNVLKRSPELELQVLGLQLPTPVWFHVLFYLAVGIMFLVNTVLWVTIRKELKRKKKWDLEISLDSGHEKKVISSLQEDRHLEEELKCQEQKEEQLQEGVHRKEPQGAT
T1 sequence (P02745 23-245 limits assumed, chain 1 of 3): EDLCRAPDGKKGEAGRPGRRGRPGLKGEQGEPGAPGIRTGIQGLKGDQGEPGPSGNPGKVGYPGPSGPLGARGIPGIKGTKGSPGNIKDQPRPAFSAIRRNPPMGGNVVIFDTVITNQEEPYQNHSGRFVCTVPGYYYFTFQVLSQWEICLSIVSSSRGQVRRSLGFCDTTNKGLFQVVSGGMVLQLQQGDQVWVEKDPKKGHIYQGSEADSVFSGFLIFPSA
T1 sequence (P02746 28-253 limits assumed, chain 2 of 3): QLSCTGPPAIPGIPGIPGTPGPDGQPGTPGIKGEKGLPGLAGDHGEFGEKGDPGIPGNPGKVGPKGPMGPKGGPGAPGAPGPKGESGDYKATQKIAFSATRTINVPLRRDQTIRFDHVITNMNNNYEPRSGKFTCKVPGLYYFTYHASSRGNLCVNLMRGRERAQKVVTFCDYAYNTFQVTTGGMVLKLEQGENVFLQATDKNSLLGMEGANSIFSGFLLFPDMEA
T1 sequence (P02747 29-245 limits assumed, chain 3 of 3): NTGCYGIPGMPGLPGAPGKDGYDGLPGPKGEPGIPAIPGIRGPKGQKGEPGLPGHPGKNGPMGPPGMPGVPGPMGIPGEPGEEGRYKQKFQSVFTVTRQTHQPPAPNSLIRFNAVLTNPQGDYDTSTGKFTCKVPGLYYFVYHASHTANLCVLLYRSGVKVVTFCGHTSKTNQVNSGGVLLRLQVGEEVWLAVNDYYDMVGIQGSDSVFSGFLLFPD
T5 sequence (P12314 16-288 limits assumed, stated change not applied): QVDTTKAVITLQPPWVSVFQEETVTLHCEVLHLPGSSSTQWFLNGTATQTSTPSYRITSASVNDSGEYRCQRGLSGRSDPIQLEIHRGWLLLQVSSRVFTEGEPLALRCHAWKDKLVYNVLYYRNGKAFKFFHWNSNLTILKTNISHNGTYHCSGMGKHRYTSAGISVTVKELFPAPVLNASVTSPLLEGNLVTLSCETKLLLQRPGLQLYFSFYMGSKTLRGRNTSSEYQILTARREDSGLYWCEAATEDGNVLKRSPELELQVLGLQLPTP

B1: IgG1-CD27-A (wild-type IgG1 Fc) (antibody)
VH: not shown
VL: QSALTQPASVSGSPGQSITISCTGTSSDVYYYNYVSWYQQHPGRAPKLVIYDVSNRPSGVSNRFSGSKSGNTASLTISGLRAEDEADYYCSSYTVNRVWVFGGGTKLTVLGQPKAAPSVTLFPPSSEELQANKATLVCLISDFYPGAVTVAWKADSSPVKAGVETTTPSKQSNNKYAASSYLSLTPEQWKSHRSYSCQVTHEGSTVEKTVAPTECS
notes: Human IgG1 heavy chain backbone, wild-type Fc; also called WT IgG1-CD27-A; IgG-CD27-A
- binding result [1]: no binding (tested: 15 µg/mL)

B2: IgG1-CD27-A carrying mutations F405L-L234F-L235E-D265A in the IgG Fc domain (antibody, V domains shown)
VH: QVQLMQSGSELKKPGASVKVSCRASGYTFTTYAMNWVRQAPGQGPEWMGWINTNTGNPTYAQGFTGRFVFSLDTTVTTTYLQISSLKAEDTAVYFCAREAGSFDYWGQGTLVTVSS
VL: QSALTQPASVSGSPGQSITISCTGTSSDVYYYNYVSWYQQHPGRAPKLVIYDVSNRPSGVSNRFSGSKSGNTASLTISGLRAEDEADYYCSSYTVNRVWVFGGGTKLTVL
- EC50 (read off the curve) [2]: ~0.04 µg/mL
- EC50 (read off the curve) [3]: ~0.04 µg/mL
- EC50 (read off the curve) [4]: ~0.1 µg/mL
- EC50 (read off the curve) [5]: ~0.2 µg/mL
- EC50 (read off the curve) [6]: ~0.06 µg/mL

B3: IgG1-b12 (wild-type IgG1 Fc) (antibody)
VH: not shown
VL: EIVLTQSPGTLSLSPGERATFSCRSSHSIRSRRVAWYQHKPGQAPRLVIHGVSNRASGISDRFSGSGSGTDFTLTITRVEPEDFALYYCQVYGASSYTFGQGTKLERKRTVAAPSVFIFPPSDEQLKSGTASVVCLLNNFYPREAKVQWKVDNALQSGNSQESVTEQDSKDSTYSLSSTLTLSKADYEKHKVYACEVTHQGLSSPVTKSFNRGEC
notes: also called WT IgG1-b12; ctrl
- EC50 (read off the curve) [7]: ~60 nM

B4: IgG1-b12-P329R-E345R (antibody)
VH: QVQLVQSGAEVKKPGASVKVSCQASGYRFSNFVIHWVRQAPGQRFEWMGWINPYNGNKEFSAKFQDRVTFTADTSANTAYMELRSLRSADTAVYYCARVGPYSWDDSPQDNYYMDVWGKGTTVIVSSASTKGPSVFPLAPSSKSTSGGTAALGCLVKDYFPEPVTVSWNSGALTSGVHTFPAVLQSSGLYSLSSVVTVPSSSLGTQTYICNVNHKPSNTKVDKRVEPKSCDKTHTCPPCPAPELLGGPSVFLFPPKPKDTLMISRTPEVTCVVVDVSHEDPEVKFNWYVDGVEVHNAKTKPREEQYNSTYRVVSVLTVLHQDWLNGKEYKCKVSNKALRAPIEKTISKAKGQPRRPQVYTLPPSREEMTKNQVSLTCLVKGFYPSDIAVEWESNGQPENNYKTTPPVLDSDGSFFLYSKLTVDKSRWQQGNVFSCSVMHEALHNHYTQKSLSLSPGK
VL: EIVLTQSPGTLSLSPGERATFSCRSSHSIRSRRVAWYQHKPGQAPRLVIHGVSNRASGISDRFSGSGSGTDFTLTITRVEPEDFALYYCQVYGASSYTFGQGTKLERKRTVAAPSVFIFPPSDEQLKSGTASVVCLLNNFYPREAKVQWKVDNALQSGNSQESVTEQDSKDSTYSLSSTLTLSKADYEKHKVYACEVTHQGLSSPVTKSFNRGEC
notes: also called ctrl; IgG1-b12-E345R-P329R
- binding result [8]: no binding (tested: 30 µg/mL)
- binding result [9]: no binding (tested: 10 µg/ml)

B5: IgG1-b12-FEAL (antibody, V domains shown)
VH: QVQLVQSGAEVKKPGASVKVSCQASGYRFSNFVIHWVRQAPGQRFEWMGWINPYNGNKEFSAKFQDRVTFTADTSANTAYMELRSLRSADTAVYYCARVGPYSWDDSPQDNYYMDVWGKGTTVIVSS
VL: EIVLTQSPGTLSLSPGERATFSCRSSHSIRSRRVAWYQHKPGQAPRLVIHGVSNRASGISDRFSGSGSGTDFTLTITRVEPEDFALYYCQVYGASSYTFGQGTKLERK
notes: also called ctrl
- binding result [5]: no binding (tested: 10 µg/mL)
